Common to all, as to assay: cell-based or functional assay
In assay [1] the target is HIV-1 Env of isolate MGRM-G-014 (subtype G) (HIV-1).
In assay [2] the target is HIV-1 Env of isolate MG RM-A-010 (pseudovirus) (HIV-1).
Assay [3] has as its target HIV-1 Env of isolate MGRM-G-006 (subtype G) (HIV-1).
The target in assay [4] is HIV-1 Env of pseudovirus isolate MGRM-Chronic-B-001 (clade B) (HIV-1).
In assay [5] the target is HIV-1 Env of isolate MGRM-D-002 (HIV-1).
Assay [6] addresses HIV-1 Env of isolate MGRM-G-019 (subtype G) (HIV-1).
For assay [7], the target named is HIV-1 envelope glycoprotein (Env) of isolate MGRM-C-017 (HIV-1).
Assay [8] concerns the target HIV-1 Env of pseudovirus MGRM-F1-008 (clade F) (HIV-1).
Assay [9] addresses HIV-1 envelope glycoprotein (Env) of isolate MGRM-C-024 (HIV-1).
Assay [10] has as its target HIV-1 MGRM-AG-009 Env (pseudovirus) (HIV-1).
Assay [11] deals with HIV-1 Env of pseudovirus MGRM-F1-014 (clade F) (HIV-1).
Assay [12] has as its target HIV-1 Env of isolate MGRM-A-006 (clade A pseudovirus) (HIV-1).
For assay [13], the target named is HIV-1 Env of isolate SC422661.8 (Acute), clade B (HIV-1).
For assay [14], the target named is HIV-1 Env of pseudovirus MGRM-F1-016 (clade F) (HIV-1).
Assay [15] has as its target HIV-1 Env of pseudovirus MGRM-F1-018 (clade F) (HIV-1).
The target in assay [16] is HIV-1 92RW024 envelope glycoprotein (Env) on pseudovirus (HIV-1 (clade A)).
For assay [17], the target named is HIV-1 MGRM-AG-012 Env (pseudovirus) (HIV-1).
The target in assay [18] is HIV-1 Env of isolate 94UG103 (Clade A) (HIV-1).
Assay [19] concerns the target HIV-1 MGRM-AE-005 Env (pseudovirus) (HIV-1).
Assay [20] has as its target HIV-1 Env of isolate 92BR020, clade B (HIV-1).
In assay [21] the target is HIV-1 Env of pseudovirus MGRM-F1-023 (clade F) (HIV-1).
In assay [22] the target is HIV-1 Env of pseudovirus MGRM-G-024 (HIV-1).
For assay [23], the target named is HIV-1 envelope glycoprotein (Env) of isolate MGRM-C-005 (HIV-1).
Assay [24] concerns the target HIV-1 Env of isolate 92UG046 (clade D pseudovirus) (HIV-1).
Assay [25] deals with HIV-1 92BR020 Env (HIV-1).
The target of assay [26] is HIV-1 Env of pseudovirus MGRM-F1-023 (HIV-1).
The target in assay [27] is HIV-1 Env of pseudovirus MGRM-D-024 (HIV-1).
In assay [28] the target is HIV-1 envelope glycoprotein (Env) of isolate MG RM-AG-003 (HIV-1).
Assay [29] has as its target HIV-1 Env of isolate MGRM-D-019 (pseudovirus) (HIV-1).
Assay [30] addresses HIV-1 Env of isolate MGRM-F1-022 (HIV-1).
Assay [31] deals with HIV-1 Env of isolate MGRM-D-028 (HIV-1).
Assay [32] concerns the target HIV-1 Env of isolate MGRM-AE-007 (subtype AE) (HIV-1).
Assay [33] concerns the target HIV-1 Env of isolate MGRM-C-004 (HIV-1).
Assay [34] concerns the target HIV-1 Env of isolate MGRM-F1-008 (HIV-1).
The target of assay [35] is HIV-1 Env of isolate 92UG005 (pseudovirus) (HIV-1).
Assay [36] deals with HIV-1 Env of isolate MGRM-D-011 (pseudovirus) (HIV-1).
Assay [37] concerns the target HIV-1 APV6 Env (HIV-1).
The target in assay [38] is HIV-1 Env of pseudovirus isolate MGRM-C-028 (clade C) (HIV-1).
The target of assay [39] is HIV-1 Env of isolate MGRM-AE-002 (subtype AE) (HIV-1).

4970_K22 (PGT-144) (antibody), sequence (VH): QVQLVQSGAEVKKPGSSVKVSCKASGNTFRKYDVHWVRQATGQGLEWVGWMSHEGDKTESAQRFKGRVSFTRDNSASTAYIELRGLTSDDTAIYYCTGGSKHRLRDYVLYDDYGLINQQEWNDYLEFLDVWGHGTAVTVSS
4970_K22 (PGT-144) (antibody), sequence (VL): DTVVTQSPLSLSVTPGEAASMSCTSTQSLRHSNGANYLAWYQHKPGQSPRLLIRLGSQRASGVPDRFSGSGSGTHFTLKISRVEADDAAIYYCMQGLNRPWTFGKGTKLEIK
4995_E20 (PGT-142) (antibody), sequence (VH): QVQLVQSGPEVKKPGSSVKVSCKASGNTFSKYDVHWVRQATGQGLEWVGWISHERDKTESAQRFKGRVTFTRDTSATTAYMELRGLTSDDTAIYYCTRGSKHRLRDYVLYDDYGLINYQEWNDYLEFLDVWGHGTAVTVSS
4995_E20 (PGT-142) (antibody), sequence (VL): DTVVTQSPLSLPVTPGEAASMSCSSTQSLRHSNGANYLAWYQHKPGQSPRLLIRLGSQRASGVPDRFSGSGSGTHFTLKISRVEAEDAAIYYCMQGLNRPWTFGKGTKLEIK
4980_N08 (PGT-143) (antibody), sequence (VH): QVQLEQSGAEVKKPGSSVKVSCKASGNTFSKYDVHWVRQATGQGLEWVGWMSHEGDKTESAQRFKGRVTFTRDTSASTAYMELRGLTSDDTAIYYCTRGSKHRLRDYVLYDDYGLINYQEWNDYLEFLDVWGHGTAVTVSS
4980_N08 (PGT-143) (antibody), sequence (VL): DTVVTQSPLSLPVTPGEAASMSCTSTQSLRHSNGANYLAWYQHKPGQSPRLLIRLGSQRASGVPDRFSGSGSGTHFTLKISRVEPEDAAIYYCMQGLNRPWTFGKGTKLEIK
4993_K13 (PGT-141) (antibody), sequence (VH): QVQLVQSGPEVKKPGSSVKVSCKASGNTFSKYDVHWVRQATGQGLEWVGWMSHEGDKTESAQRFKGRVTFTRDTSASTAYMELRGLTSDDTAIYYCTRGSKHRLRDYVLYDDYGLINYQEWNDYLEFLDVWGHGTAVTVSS
PGT-145 (4995_P16) (antibody), sequence (VH): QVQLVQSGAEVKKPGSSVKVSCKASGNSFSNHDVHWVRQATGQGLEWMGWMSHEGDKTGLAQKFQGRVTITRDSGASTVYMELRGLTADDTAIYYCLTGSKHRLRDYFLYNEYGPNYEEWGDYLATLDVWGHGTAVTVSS
PGT-145 (4995_P16) (antibody), sequence (VL): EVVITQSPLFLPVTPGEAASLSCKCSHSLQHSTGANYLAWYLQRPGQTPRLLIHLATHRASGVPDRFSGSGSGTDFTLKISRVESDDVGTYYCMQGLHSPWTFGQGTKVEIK
1443_C16 (PG16) (TCN-116) (antibody), sequence (VH): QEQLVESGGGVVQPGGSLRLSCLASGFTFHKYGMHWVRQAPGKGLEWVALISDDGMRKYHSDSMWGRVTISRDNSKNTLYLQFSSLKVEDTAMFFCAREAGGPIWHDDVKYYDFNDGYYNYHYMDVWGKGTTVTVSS
1443_C16 (PG16) (TCN-116) (antibody), sequence (VL): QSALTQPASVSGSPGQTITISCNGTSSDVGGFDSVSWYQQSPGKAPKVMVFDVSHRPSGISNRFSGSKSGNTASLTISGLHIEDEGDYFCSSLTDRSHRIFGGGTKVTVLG

For the substance 4995_P16 (PGT-145) (antibody), the IC50 (µg/mL), pseudovirus neutralization in assay [1] is 0.144 µg/mL; in assay [3] it was 0.286 µg/mL; in assay [5] it was greater than 50 µg/mL; in assay [6] it was 0.041 µg/mL. This substance had an IC50 (µg/mL), single-round pseudovirus neutralization in assay [2] of 0.028 µg/mL. Besides, the IC50, pseudovirus neutralization in assay [4] is 3.22 µg/mL.
As to b12 (antibody), the IC50 (µg/ml), pseudovirus neutralization in [7] is greater than 50 µg/mL; in assay [9], greater than 50 µg/mL; in assay [10], greater than 50 µg/mL; in assay [12], 13.6 µg/mL; in assay [13], 6.11 µg/mL; in [16] it was greater than 50 µg/mL. The IC50 (µg/ml), pseudovirus neutralization in [17] is 10.4 µg/mL; in [19], 0.63 µg/mL; in [20] it was greater than 50 µg/mL; in assay [22], 2.38 µg/mL; in assay [23] it was 2.66 µg/mL. In addition, the half-inhibitory concentration (IC50) in assay [8], in [11], in assay [14], in assay [15] and in assay [21] was greater than 50 µg/mL in each case. In addition, the IC90 (neutralization of pseudovirus) in assay [18] is 47.3 µg/mL. The same substance showed an IC50, pseudovirus neutralization in assay [24] of 0.07 µg/mL.
As for 1443_C16 (PG16) (TCN-116) (antibody), the IC50 (µg/ml), pseudovirus neutralization was 1.8 µg/mL in [7]; 0.04 µg/mL in assay [9]; greater than 50 µg/mL in assay [10]; greater than 50 µg/mL in assay [12]; 1.13 µg/mL in assay [13]; 0.08 µg/mL in assay [16]. Further, the IC50 (µg/ml), pseudovirus neutralization is 25.1 µg/mL in assay [17]; 0.02 µg/mL in assay [19]; greater than 50 µg/mL in [20]; 0.01 µg/mL in assay [22]; 2.55 µg/mL in assay [23]. For the same substance, the IC50 in assay [8] is greater than 50 µg/mL; in [11], 0.01 µg/mL; in assay [14], 1.12 µg/mL; in [15], 0.01 µg/mL; in [21], greater than 50 µg/mL. Also, the IC90 (neutralization of pseudovirus) in [18] was 1.59 µg/mL. In assay [24], the IC50, pseudovirus neutralization came to 1.42 µg/mL.
For the substance 4980_N08 (PGT-143) (antibody), the IC50 (µg/mL), pseudovirus neutralization in assay [1] was 0.107 µg/mL; in assay [3] it was 0.031 µg/mL; in assay [5], greater than 50 µg/mL; in assay [6], 4.77 µg/mL. In addition, the IC50 (µg/mL), single-round pseudovirus neutralization in assay [2] is 0.019 µg/mL. The IC50, pseudovirus neutralization is greater than 10 µg/mL in [25] and greater than 50 µg/mL in assay [4].
For 4970_K22 (PGT-144) (antibody), the IC50 (µg/mL), pseudovirus neutralization in assay [1] is 0.562 µg/mL; in assay [3], 3.84 µg/mL; in assay [5] it was greater than 50 µg/mL; in [6] it was greater than 50 µg/mL. Further, in [2], the IC50 (µg/mL), single-round pseudovirus neutralization turned out to be 2.79 µg/mL. Further, the IC50, pseudovirus neutralization is greater than 10 µg/mL in [25] and greater than 50 µg/mL in assay [4].
Consider 1495_C14 (PGC14) (antibody), for which the IC50 (µg/ml), pseudovirus neutralization in [7], in assay [9], in [10], in [12], in assay [13] and in [16] was greater than 50 µg/mL each time. Moreover, the IC50 (µg/ml), pseudovirus neutralization is greater than 50 µg/mL in assay [17]; greater than 50 µg/mL in assay [19]; 4 µg/mL in [20]; greater than 50 µg/mL in assay [22]; greater than 50 µg/mL in [23]. Also, the IC50 in assay [8], in [11], in assay [14], in assay [15] and in assay [21] was greater than 50 µg/mL each time. In assay [24], this substance registered an IC50, pseudovirus neutralization greater than 50 µg/mL.
Turning to PGT-141 (4964_G22; 4993_K13) (antibody), the values for the IC50, pseudovirus neutralization in assay [26] and in assay [27] were 0.307 µg/mL and greater than 50 µg/mL, respectively. Besides, in assay [28], the IC50 was greater than 50 µg/mL.
Take VRC01 (antibody): the IC50, pseudovirus neutralization was found to be 0.392 µg/mL in assay [26], 0.366 µg/mL in [27] and 0.066 µg/mL in assay [4]. The IC50 (µg/mL), pseudovirus neutralization in assay [1] stood at 0.056 µg/mL; in assay [3] it was 0.055 µg/mL; in assay [5] it was 0.252 µg/mL; in assay [6], 0.06 µg/mL. The IC50 (µg/mL), single-round pseudovirus neutralization in assay [2] came to 0.325 µg/mL. Besides, in assay [28], the half-inhibitory concentration (IC50) stood at 0.043 µg/mL.
With 5147_N06 (PGT-130) (antibody), the IC50 (µg/mL), pseudovirus neutralization was greater than 50 µg/mL in [29]; greater than 50 µg/mL in assay [30]; 0.825 µg/mL in [31]; 2.76 µg/mL in assay [33]; 0.065 µg/mL in assay [34]; 0.959 µg/mL in [35]. The substance further yielded an IC50 (µg/mL), pseudovirus neutralization in assay [36] of 0.019 µg/mL. The IC50, pseudovirus neutralization in assay [32] was 0.083 µg/mL; in assay [25], 1.12 µg/mL; in [37], greater than 10 µg/mL; in assay [38], greater than 50 µg/mL; in [39], 1.53 µg/mL.
As to PGT-144 (4970_K22) (antibody), the IC50, pseudovirus neutralization in assay [26] is 1.16 µg/mL; in [27], greater than 50 µg/mL. In assay [28], this substance returned an IC50 greater than 50 µg/mL.
Turning to 4995_E20 (PGT-142) (antibody), the IC50 (µg/mL), pseudovirus neutralization in assay [1] was 0.076 µg/mL; in assay [3], 0.019 µg/mL; in assay [5], greater than 50 µg/mL; in assay [6], 5.95 µg/mL. Also, the IC50 (µg/mL), single-round pseudovirus neutralization in assay [2] turned out to be 0.015 µg/mL. In addition, the IC50, pseudovirus neutralization was greater than 10 µg/mL in assay [25] and greater than 50 µg/mL in [4].
Turning to PGT-142 (4995_E20) (antibody), the IC50, pseudovirus neutralization is 0.602 µg/mL in assay [26] and greater than 50 µg/mL in assay [27]. In assay [28], the IC50 was greater than 50 µg/mL.
For 4993_K13 (PGT-141) (antibody), the IC50 (µg/mL), pseudovirus neutralization in assay [1] is 0.222 µg/mL; in assay [3] it was 0.043 µg/mL; in [5] it was greater than 50 µg/mL; in assay [6], 20.3 µg/mL. In assay [2], this substance registered an IC50 (µg/mL), single-round pseudovirus neutralization of 0.022 µg/mL. Further, the IC50, pseudovirus neutralization in assay [25] is greater than 10 µg/mL; in assay [4], greater than 50 µg/mL.
For the substance PGT-143 (4980_N08) (antibody), the results for the IC50, pseudovirus neutralization in assay [26] and in [27] were 0.972 µg/mL and greater than 50 µg/mL, respectively. For the same substance, the IC50 in assay [28] is greater than 50 µg/mL.
Consider PGT-145 (4995_P16) (antibody), for which the IC50, pseudovirus neutralization in assay [26] came to 5.88 µg/mL; in [27], 0.224 µg/mL. Further, the half-inhibitory concentration (IC50) in assay [28] is greater than 50 µg/mL.

One may read the IC50 as the concentration that gives 50% inhibition.

Values taken from patent US20240132578A1.
